Consider 1 substance from PMC7026633.

The assay addresses Flag-tagged phosphor-mutant (AA: S1310A, S1379A) full-length human Tet3 (lentiviral) (human) (UniProt O43151). The assay can be described thus: co-IP; Tet3 KO mouse ESCs stably expressing Flag-tagged Wt or AA human Tet3; lysate in TBST buffer (50 mM Tris-HCl pH 7.4, 150 mM NaCl, 1 mM EDTA, 1% Triton X-100); IP overnight with anti-Flag M2 affinity gel or mouse IgG agarose, washed four times with TBST; blot for FLAG and H2A.Z.

As to “histone variant H2A.Z (endogenous, mouse ESCs) (from UniProt P0C0S6 1-128) (natural protein)”, the fold change of H2A.Z pulled down, against wild-type Tet3 was determined as 2 fold.
